Reference: patent publication US20210363269A1 (ALX ONCOLOGY, published 2021)

T1: cynomolgus SIRP-α D1 domain (SEQ ID NO:11) (cynomolgus, UniProt Q5TFQ8 30-148 (human entry), limits assumed)
T1 construct: also called cyno1
T1 chain: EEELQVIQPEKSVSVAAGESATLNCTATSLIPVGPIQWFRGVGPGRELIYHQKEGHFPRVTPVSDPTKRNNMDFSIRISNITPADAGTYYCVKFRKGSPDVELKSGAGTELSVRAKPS

T2: cynomolgus SIRP-α (cynomolgus monkey, UniProt Q5TFQ8 30-148 (human entry), limits assumed)
T2 construct: also called cyno1
T2 chain: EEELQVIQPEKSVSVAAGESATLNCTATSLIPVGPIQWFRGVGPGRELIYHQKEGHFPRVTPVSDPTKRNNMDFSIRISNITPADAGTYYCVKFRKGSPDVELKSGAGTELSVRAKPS

T3: BL6 mouse SIRP-α (mouse (C57BL/6 strain), UniProt P97797 32-148)
T3 construct: also called C57BL/6
T3 sequence: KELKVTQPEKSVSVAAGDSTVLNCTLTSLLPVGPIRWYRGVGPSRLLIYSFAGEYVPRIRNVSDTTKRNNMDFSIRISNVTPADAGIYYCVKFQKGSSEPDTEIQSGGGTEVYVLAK

T4: BALBc mouse SIRP-α (mouse (BALB/c strain))
T4 chain: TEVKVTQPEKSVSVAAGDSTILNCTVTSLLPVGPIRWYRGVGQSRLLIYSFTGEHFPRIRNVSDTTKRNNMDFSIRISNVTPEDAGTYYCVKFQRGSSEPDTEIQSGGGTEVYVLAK

T5: NOD mouse SIRP-α (mouse (NOD strain))
T5 chain: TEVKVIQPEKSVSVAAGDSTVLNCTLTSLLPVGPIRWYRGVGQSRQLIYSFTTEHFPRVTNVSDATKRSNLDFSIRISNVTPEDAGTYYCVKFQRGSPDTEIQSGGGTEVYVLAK

B1: AB119a (antibody, human IgG1, V domains shown)
VH: DVQLLESGGGVVQPGGSLRLSCAASGFSFSNFAMTWVRQAPGEGLEWVSTIGSGDTYYADSVKGRFTISRDNSKNTLYLQMNSLRAEDTAVYYCAKDSTVSWSGDFFDYWGLGTLVTVSS
VL: EIVLTQSPATLSVSPGERATFSCRASQNVKNDLAWYQQRPGQAPRLLIYAARIRETGIPERFSGSGSGTEFTLTITSLQSEDFAVYYCQQYYDWPPFTFGGGTKVEIK
notes: Full-length human IgG1 with L234A, L235A, G237A and N297A; only variable domains tied to the clone
B2: Hum1/AB21_HC_Mutall (antibody, V domains shown)
VH: EVQLVESGGGVVQPGGSLRLSCAASGFTFSSNAMSWVRQAPGKGLEWVAGISAGGSDTYYPASVKGRFTISRDNSKNTLYLQMNSLRAEDTAVYYCARETWNHLFDYWGQGTLVTVSS
VL: SYELTQPPSVSVSPGQTARITCSGGSYSSYYYAWYQQKPGQAPVTLIYSDDKRPSNIPERFSGSSSGTTVTLTISGVQAEDEADYYCGGYDQSSYTNPFGGGTKLTVL
notes: also called Hum1/AB21mutall
B3: Hum9/AB21_HC_Mutall (antibody, V domains shown)
VH: EVQLVESGGGVVQPGGSLRLSCAASGFTFSSNAMSWVRQAPGKGLEWVAGISAGGSDTYYPASVKGRFTISRDNSKNTLYLQMNSLRAEDTAVYYCARETWNHLFDYWGQGTLVTVSS
VL: SYELTQPPSVSVSPGQTARITCSGGAYSSYYYAWYQQKPGQAPVLVIYSDDKRPSGIPERFSGSSSGTTVTLTISGVQAEDEADYYCGGYDQSSYTNPFGGGTKLTVL
notes: also called Hum9/AB21mutall

Assays:
[1] = target: T6, human SIRP-α v2 D1 domain (human); assay: SPR, antibody immobilised on GLC chip
T6 construct: also called human v2; human α v2

[2] = target: T1, cynomolgus SIRP-α D1 domain (SEQ ID …); assay: SPR, antibody immobilised on GLC chip
[3] = target: T7, human SIRP-α v1 D1 domain (human, UniProt P78324 31-149); assay: SPR, antibody immobilised on GLC chip
T7 construct: also called human v1; human α v1
Target sequence in this assay (P78324 31-149 limits assumed): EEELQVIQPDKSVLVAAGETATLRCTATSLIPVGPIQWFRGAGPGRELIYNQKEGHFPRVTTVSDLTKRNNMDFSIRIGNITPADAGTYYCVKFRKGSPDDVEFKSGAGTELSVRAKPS

human SIRPβ isoform 1 [4] = target: T8, human SIRPβ isoform 1 (human, UniProt O00241 30-148); assay: SPR, ProteOn, antibody on chip
T8 construct: also called sirpb1; Sirpb1
Procedure: (§1) All experiments were performed at 25° C. using a SPR-based ProteOn XPR36 biosensor (BioRad, Inc, Hercules, Calif.) equipped with GLC or NLC sensor chips. […] Purification was carried out by standard Protein A affinity column chromatography and eluted antibodies were stored in PBS buffer.
(§2) The running buffer was PBS pH 7.4 with 0.01% Tween-20 (PBST+). All analytes were used at their nominal concentrations as determined by A280 Absorbance and using their molar calculated extinction coefficient.
(§3) For the method using GLC chip, the analytes were injected and flowed over anti-SIRPα antibodies immobilized (˜1000 RUs) on GLC chips using Proteon™ Amine Coupling Kit. For the immobilization step, GLC chip was activated with EDAC/Sulpho-NHS 1:1 (Biorad) diluted 1/100 for 300 s at 25 μL/min. Anti-SIRPα antibodies were diluted to 80 nM concentration in 10 mM sodium acetate buffer pH 4.5 and immobilized to the chip at 30 μL/min for 50 s. Chip was inactivated with ethanolamine for 300 s at 25 μL/min. The analytes (e.g., SIRP-α from different species, SIRP-β, SIRP-γ) were injected in a “one-shot” kinetic mode at nominal concentrations of 100, 33, 11, 3.7, 1.2 and 0 nM. Association times were monitored for 90 s at 100 μL/min, and dissociation times were monitored for 1200 s. The surfaces were regenerated with a 2:1 v/v blend of Pierce IgG elution buffer/4M NaCl.
T8 sequence (O00241 30-148 limits assumed): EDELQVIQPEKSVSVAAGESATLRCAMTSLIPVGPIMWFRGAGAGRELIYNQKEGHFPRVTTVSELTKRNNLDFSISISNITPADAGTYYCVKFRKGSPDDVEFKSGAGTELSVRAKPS

[5] = target: T6, human SIRP-α v2 D1 domain; assay: SPR, ProteOn, antibody on chip
Procedure: as §1, §2, §3

human SIRPβ isoform 2 = target: T9, human SIRPβ isoform 2 (human, UniProt Q5TFQ8 30-148); assay: SPR, ProteOn, antibody on chip
T9 construct: also called Sirpb2; beta isoform 2
Procedure: as §1, §2, §3

[6] = target: T1, cynomolgus SIRP-α D1 domain (SEQ ID …); assay: SPR, ProteOn, antibody on chip
Procedure: as §1, §2, §3

[7] = target: T7, human SIRP-α v1 D1 domain; assay: SPR, ProteOn, antibody on chip
Procedure: as §1, §2, §3

human SIRPγ isoform 1 [8] = target: T10, human SIRPγ isoform 1 (human, UniProt Q9P1W8 29-147); assay: SPR, ProteOn, antibody on chip
T10 construct: also called sirpg; sirp-g
Procedure: as §1, §2, §3
T10 sequence (Q9P1W8 29-147 limits assumed): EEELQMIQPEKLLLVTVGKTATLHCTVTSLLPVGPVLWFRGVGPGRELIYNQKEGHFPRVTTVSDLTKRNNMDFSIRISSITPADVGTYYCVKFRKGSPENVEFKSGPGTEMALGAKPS

human SIRPγ isoform 1 [9] = target: T11, human SIRPγ isoform 1 (human, UniProt Q9P1W8 29-147); assay: SPR
T11 construct: also called Gamma; Human SIRPg
Summary of the method: (§4)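 Purified antibodies were either amine-coupled to a GLC chip or captured via biotinylated Protein A on an NLC chip of a ProteOn XPR36 biosensor. Runs were at 25° C in PBS pH 7.4 with 0.01% Tween-20. SIRP analytes were injected in one-shot kinetic mode at nominal concentrations set by A280 absorbance. Double-referenced data were fitted globally to a simple Langmuir model, giving apparent rate constants, with KD taken as kd/ka.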
T11 sequence (Q9P1W8 29-147 limits assumed): as above

human SIRP-α v1 = target: T12, human SIRP-α v1 (human, UniProt P78324 31-149); assay: SPR
T12 construct: also called Human v1; Human V1
Summary of the method: as §4

human SIRPβ isoform 1 [10] = target: T13, human SIRPβ isoform 1 (human, UniProt O00241 30-148); assay: SPR
T13 construct: also called Beta; Human SIRPb
Summary of the method: as §4
T13 sequence (O00241 30-148 limits assumed): as the sequence (O00241 30-148 limits assumed) above

cynomolgus SIRP-α = target: T2, cynomolgus SIRP-α; assay: SPR
Summary of the method: as §4

BL6 mouse SIRP-α = target: T3, BL6 mouse SIRP-α; assay: SPR
Summary of the method: as §4

BALBc mouse SIRP-α = target: T4, BALBc mouse SIRP-α; assay: SPR
Summary of the method: as §4

human SIRP-α v2 = target: T14, human SIRP-α v2 (human); assay: SPR
T14 construct: also called Human v2; Human V2
Summary of the method: as §4

NOD mouse SIRP-α = target: T5, NOD mouse SIRP-α; assay: SPR
Summary of the method: as §4

T12 sequence (P78324 31-149 limits assumed): as the sequence (P78324 31-149 limits assumed) above
T14 sequence (chain, as listed by the source limits assumed): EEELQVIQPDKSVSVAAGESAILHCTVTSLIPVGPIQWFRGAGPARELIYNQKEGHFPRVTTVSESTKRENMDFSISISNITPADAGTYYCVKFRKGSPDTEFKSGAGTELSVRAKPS
T6 sequence (chain, as listed by the source limits assumed): as above
T9 sequence (Q5TFQ8 30-148 limits assumed): as the sequence (P78324 31-149 limits assumed) above, with V13I, L14S, T20S, R24H, A27V, G79S, D101H counted along it

Binder	Kd [1] [nM]	Kd [2] [nM]	Kd [3] [nM]	Kd (human SIRPβ isoform 1 [4]) [nM]	Kd [5] [nM]	Kd (human SIRPβ isoform 2) [nM]	Kd [6] [nM]	Kd [7] [nM]	Kd (human SIRPγ isoform 1 [8]) [nM]	Kd (human SIRPγ isoform 1 [9]) [nM]	Kd (human SIRP-α v1) [nM]	Kd (human SIRPβ isoform 1 [10]) [nM]	Kd (cynomolgus SIRP-α) [nM]	Kd (BL6 mouse SIRP-α) [nM]	Kd (BALBc mouse SIRP-α) [nM]	Kd (human SIRP-α v2) [nM]	Kd (NOD mouse SIRP-α) [nM]
B1	0.0682	0.112	0.183	0.342	0.0799	0.376	0.145	0.198	0.886								
B2										< 0.001	0.00532	0.0067	0.0291	9.5	7.91	0.0046	3.7
B3										0.0345	0.0119	0.0569	0.222		136	0.119	24.1
